target: Nα,Nε-diacetyl-L-Lys-D-Ala-D-Ala tripeptide; assay: ITC, 25 C, one-site model

TΔS	ΔG	ΔH	Substance
0.85 kcal/mol	-7.9 kcal/mol	-7 kcal/mol	keratinimicin A (peptide)
0.2 kcal/mol	-7.6 kcal/mol	-7.4 kcal/mol	keratinimicin C (peptide)
-0.96 kcal/mol	-7.6 kcal/mol	-8.6 kcal/mol	vancomycin (peptide)

target: Nα,Nε-diacetyl-L-Lys-D-Ala-D-Ala tripeptide; assay: ITC, tripeptide injected into 10 uM glycopeptide, 25 C, one-site model

Kd	Substance
1700 nM	keratinimicin A (peptide)
2800 nM	keratinimicin C (peptide)
2700 nM	vancomycin (peptide)

Reference: patent publication US20230044467A1
